Reference: patent publication US20010034019A1, “Chimeric HCV/GBV-B viruses” (priority 1999, published 2001)

How the values were obtained:
GBV-B NS5B ΔCT19 [1] = target: T1, GBV-B NS5B ΔCT19 (Hepatitis GB virus B, UniProt Q69422); assay: Scintillation proximity assay (SPA) of RdRp activity; assay type: biochemical
T1 construct: initiator methionine (N); made in house; host or cells: E. coli JM109 (DE3)
T1 sequence (Q69422 2275-2845 limits assumed): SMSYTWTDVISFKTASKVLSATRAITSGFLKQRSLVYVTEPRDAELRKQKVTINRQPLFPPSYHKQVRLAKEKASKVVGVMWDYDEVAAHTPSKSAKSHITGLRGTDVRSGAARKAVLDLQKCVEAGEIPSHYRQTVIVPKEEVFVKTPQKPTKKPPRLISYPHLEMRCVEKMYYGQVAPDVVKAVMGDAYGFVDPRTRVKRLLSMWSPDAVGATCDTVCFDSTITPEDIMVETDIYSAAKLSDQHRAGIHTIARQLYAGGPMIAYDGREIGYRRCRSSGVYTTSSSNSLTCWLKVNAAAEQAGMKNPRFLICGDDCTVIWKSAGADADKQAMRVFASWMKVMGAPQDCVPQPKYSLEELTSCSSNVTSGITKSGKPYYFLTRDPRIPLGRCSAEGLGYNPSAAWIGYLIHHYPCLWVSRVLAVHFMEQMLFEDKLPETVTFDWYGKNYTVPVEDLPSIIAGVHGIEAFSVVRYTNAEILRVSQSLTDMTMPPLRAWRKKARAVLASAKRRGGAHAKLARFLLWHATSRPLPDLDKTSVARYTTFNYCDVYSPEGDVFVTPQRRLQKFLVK
Procedure: Scintillation proximity assay (SPA). SPA was used to determine the standard activity of RdRp, and performed under standard conditions as described previously by Ferrari et al., supra. Briefly, reaction mixtures (50 μl in total volume) containing, in addition to other buffer components (20 mM HEPES, pH7.3, 7.5 mM DTT, 10 mM MnCl2, 100 mM NaCl, 50 μg/ml BSA and 2 units of RNasin), 250 ng of poly(C), 25 ng of biotinylated oligo(G)12, 5 μM GTP/ 0.1 μCi of ^3H-GTP and 175 ng of GBV-B NS5B protein were incubated in a 96-well plate at room temperature for 3 hours. The reactions were terminated by addition of 50 μl of 100 mM EDTA in phosphate-buffered saline (PBS), the products were captured by SPA beads coated with streptavidin and ^3H-GMP incorporation was determined with a scintillation counter.

GBV-B NS5B ΔCT19 [2] = target: T1, GBV-B NS5B ΔCT19; assay: Gel-based RdRp assay; assay type: biochemical; conditions: ZnCl2 0, 1, 2.5, 5, 7.5, 10 μM
Procedure: Gel-based RdRp assay. Standard activity assays were performed in a reaction mixture (40 μl) containing 20 mM HEPES, pH 7.3, 15 mM MnCl2, 100 μM of ATP, UTP, GTP and 10 μCi of α-^33P-CTP, 300 ng of purified protein and 0.2 μg of a 36-base synthetic RNA (5′-GGA25UAUAUAUAU-3′). The sequence of the RNA was designed to form a stem-loop at the 3′-end to support the “copy-back” priming of RNA synthesis. The polymerization reaction was performed at 30° C. for 1 hr and terminated by phenol and chloroform extraction. RNA was ethanol precipitated and separated on a 15% TBE/6 M urea polyacrylamide gel (Novex). The gel was fixed, vacuum dried and subjected to autoradiography.

[3] = test system: GBV-B NS4A peptide (4A31; aa 16-46 of GBV-B NS4A)
[4] = test system: GBV-B NS4A cofactor peptide (4A17; amino acids 20-36 of GBV-B NS4A)
[5] = test system: HCV NS4A cofactor peptide (4A13; aa 22-34 of HCV NS4A)
[6] = test system: GBV-B NS4A 18-mer peptide (amino acids 29-46)
[7] = test system: GBV-B NS4A 15-mer peptide (amino acids 22-36)
GBV-B NS5B ΔCT19 [8] = target: T1, GBV-B NS5B ΔCT19; assay: RNA-binding (gel-shift) competition assay; conditions: for affinity order of binding to NS5B ΔCT19: competition with nonradiolabeled RNA homopolymers
Procedure: RNA-binding assay. The RNA binding assay was performed in a 10 μl reaction mixture containing 20 mM HEPES, pH 7.3, 7.5 mM MnCl2, 7.5 mM DTT, 5% glycerol, 125 mM NaCl, 100 μg per ml of BSA, 1 unit of RNase inhibitor, 100 ng of GBV-B NS5B protein, 1 pmol of an end-labeled RNA probe with the sequence of 5′-U28GGACUU CGGUCC-3′, and increasing amounts of homopolymeric RNA as depicted indicated in FIG. 12. The probe bound most tightly to the GBV-B NS5B among all the RNA probes of similar length tested (data not shown). Following incubation at room temperature for 30 min, the reaction mixture was separated on a nondenaturing 6% polyacrylamide gel at 180 volts for 1.25 hrs in 0.5×TBE buffer. The gel was dried and subjected to autoradiography.

OCC(O)CO [Glycerol]
concentration at which RdRp activity is inhibited (GBV-B NS5B ΔCT19 [1]; poly C template, oligoG12 primer): higher than 3%

[Cl-].[Cl-].[Mg+2] [Mg^2+, MgCl2]
ability of divalent cation to support RdRp activity (GBV-B NS5B ΔCT19 [1]; concentrations as high as 20 mM): could not replace Mn^2+ to support the activity

[Cl][Mn][Cl] [Mn^2+, MnCl2]
optimal concentration of divalent cation for polymerase activity (GBV-B NS5B ΔCT19 [1]; titration 0-20 mM): 15 mM

[Cl-].[Cl-].[Zn+2] [Zn^2+, ZnCl2]
inhibition of GBV-B RdRp activity (GBV-B NS5B ΔCT19 [2]): inhibits GBV-B RdRp activity at low-micromolar (μM) concentrations

full-length GBV-B NS3 protease (GBV-B NS3-His)
trans-cleavage of GBV-B NS4A/4B substrate by 2 uM GBV-B NS3 with or without 20 uM peptide (SDS-PAGE) [3]: cleavage at the NS4A/NS4B junction by wild type GBV-B NS3 occurs only in the presence of the GBV-B NS4A cofactor | trans-cleavage of GBV-B NS5A/5B substrate by 2 uM GBV-B NS3 with or without 20 uM peptide (SDS-PAGE) [3]: processing at the NS5A/NS5B junction is also NS4A cofactor-dependent | trans-cleavage of in vitro translated HCV NS4A/4B, NS4B/5A and NS5A/5B substrates by GBV-B NS3 with or without 20 uM peptide (SDS-PAGE) [3]: substrate processing was greatly improved by the NS4A peptide | cofactor activity: enhancement of cleavage of GBV-B NS4A/4B substrate by 1.5 uM GBV-B NS3 (phosphorimaging) [4]: a 17-mer peptide derived from amino acid 20 to 36 of NS4A retained the cofactor activity | trans-cleavage of HCV (250 nM protease) and GBV-B (2 uM protease) NS4A/4B substrates by GBV-B NS3 with 100 uM peptide (SDS-PAGE) [4]: protease activation is dependent upon an NS4A cofactor from the same virus (GBV-B NS3 activated by the GBV-B NS4A peptide) | trans-cleavage of HCV (250 nM protease) and GBV-B (2 uM protease) NS4A/4B substrates by GBV-B NS3 with 100 uM peptide (SDS-PAGE) [5]: protease activation is dependent upon an NS4A cofactor from the same virus (GBV-B NS3 not activated by the HCV NS4A peptide) | cofactor activity: enhancement of cleavage of GBV-B NS4A/4B substrate by 1.5 uM GBV-B NS3 (phosphorimaging) [6]: did not possess the cofactor activity as it failed to enhance the protease activity | cofactor activity: enhancement of cleavage of GBV-B NS4A/4B substrate by 1.5 uM GBV-B NS3 (phosphorimaging) [7]: a 15-mer peptide (amino acids 22-36), which is the minimum region that efficiently activates protease activity for trans-cleavage

full-length HCV NS3 protease (HCV His-NS3)
trans-cleavage of HCV and GBV-B NS4A/4B substrates by 50 nM HCV NS3 with 100 uM peptide (SDS-PAGE) [4]: protease activation is dependent upon an NS4A cofactor from the same virus (HCV NS3 not activated by the GBV-B NS4A peptide) | trans-cleavage of GBV-B NS4A/4B substrate by HCV NS3 with or without 100 uM peptide (SDS-PAGE) [5]: dose-dependent and NS4A cofactor-enhanced cleavage activity at the NS4A/4B junction site | trans-cleavage of GBV-B NS4A/4B substrate by full-length HCV NS3 with HCV NS4A peptide (SDS-PAGE) [5]: also generated the cleavage products in an HCV NS4A cofactor-dependent manner | trans-cleavage of GBV-B NS5A/5B substrate by HCV NS3 with or without 100 uM peptide (SDS-PAGE) [5]: Cleavage of the GBV-B NS5A/5B site was inefficient and required 10 µM of HCV NS3 protease and was cofactor dependent | trans-cleavage of HCV and GBV-B NS4A/4B substrates by 50 nM HCV NS3 with 100 uM peptide (SDS-PAGE) [5]: protease activation is dependent upon an NS4A cofactor from the same virus (HCV NS3 activated by the HCV NS4A peptide)

poly (A)
affinity order of binding to NS5B ΔCT19 (GBV-B NS5B ΔCT19 [8]): poly (U)>poly (G)>poly (A)>poly (C)

poly (C)
affinity order of binding to NS5B ΔCT19 (GBV-B NS5B ΔCT19 [8]): poly (U)>poly (G)>poly (A)>poly (C)

poly (U)
competition for binding of NS5B ΔCT19 to labeled RNA probe (GBV-B NS5B ΔCT19 [8]; 0.1, 1, 10, 100 x probe): competes most efficiently for binding | affinity order of binding to NS5B ΔCT19 (GBV-B NS5B ΔCT19 [8]): poly (U)>poly (G)>poly (A)>poly (C)
